From article doi:10.1101/2022.06.28.498018 (bioRxiv, 2022) come the findings set out here.

Data set [1] has as its target P116 variant Trp681Ala (Mycoplasma pneumoniae) (UniProt P75556). Briefly: SEC-MALS.
Data set [2] deals with the molecule itself. Kind of data set: cryo-EM structure.

Regarding “P116 variant Trp681Ala (from UniProt P75556 30-957) (domain or fragment)”, in data set [1], the ratio of dimers to monomers (dimers per monomer) was found to be 0.25.

B1: P116 ectodomain (residues 30-957) from Mycoplasma pneumoniae (domain or fragment, UniProt P75556 30-957, looked up)
chain: NKTHQVEHESEQSDFQDIRFGLNSVKLPKAQPAAATRITVENGTDKLVNYKSSPQQLFLAKNALKDKLQGEFDKFLSDAKAFPALTADLQEWVDQQLFNPNQSFFDLSAPRSNFTLSSDKKASLDFIFRFTNFTESVQLLKLPEGVSVVVDSKQSFDYYVNASAQKLLVLPLSLPDYTLGLNYMFDHITLNGKVVNKFSFNPFKTNLNLAFSNVYNGVDVFEAQKNLVGKGKYLNTHVKAEDVKKDVNANIKNQFDIAKIIAELMGKALKEFGNQQEGQPLSFLKVMDKVKEDFEKLFNLVRPGLGKFVKDLIQSSSQAENKITVYKLIFDNKKTILNLLKELSIPELNSSLGLVDVLFDGITDSDGLYERLQSFKDLIVPAVKTNEKTAALSPLIEELLTQKDTYVFDLIQKHKGILTNLLKNFLADFQKSTPFMADQVAIFTELFDNEGAFDLFGEADFVDKIAELFLTKRTVKNGEKIETKDSLLVTSLKSLLGEKVAALGDLLDSYIFKNELLNRSVEVAKAEAKDTKGATDYKKEQAKALKKLFKHIGENTLSKTNLDKITLKEVKNTENVELEETETTLKVKKLDVEYKVELGNFEIKNGLIKAMLEFLPDTKDLETTLDKLLFKGESYKAMKDKYIKEGFPGYGWAKGVVPGAFESIENTFKSAIDKTKSIRDLFGDMLFGNDLSSVKETDSFITLGGSFDIKYGGENLNVLPAYYSLINSEIGYQIIGVDTTIDATKVKVELKNKEYKGKSPAINGQVKLSQSFFNVWTNMFDSITKQIFQKKYEFKDNIQVFARNEDNTSRLELDISDPEQRVIPFAFVDGFGIQLKAVDKNITKEAGNTEPKSPVIQLYEALNKEKDQKQQSKQSPKQLDTKTQLGYLLKLGDNWSKDDYKSLIDDTIINNNYLEASFNSKITVDRLG
For the molecule B1, in data set [2], the “stoichiometry N” value turned out to be 2.

One may read the stoichiometry N as the number of molecules, sites or subunits per partner or assembly.
